Laboratory results as given in the Human Domainome abundance scans (Beltran et al. 2025).
± gives the uncertainty stated by the source.

B1: SAM and SH3 domain-containing protein 1, residues 630 to 700; numbered along this chain, O94885 (parent)
chain: GRPPQPKSVEDLLDRINLKEHMPTFLFNGYEDLDTFKLLEEEDLDELNIRDPEHRAVLLTAVELLQEYDSN

Variants of: B1
Test: abundance fitness (aPCA) (normalised: wild type 0, dead -1); higher = more abundant; growth selection in yeast, the domain comes from the species named
Settings: Homo sapiens

Variant | abundance fitness
GRPPQPKSVEDLLDRINLKEHMPTFLFNGYEDLDTFKLLEEEDLDELNIRDQEHRAVLLTAVELLQEYDSN | -0.424 ± 0.057
GRPPQPKSVEDLLDRINLKEHMPTFLFNGYEDLDTFKLLEEEDLDELNIRDTEHRAVLLTAVELLQEYDSN | -0.437 ± 0.045
GRPPQPKSVEDLLDRINLKEHMPTFLFNGYEDLDTFKLLEEEDLDELNIRDPEHRAALLTAVELLQEYDSN | 0.394 ± 0.037
GRPPQPKSVEDLLDRINLKEHMPTFLFNGYEDLDTFKLLEEEDLDELNIRDPEERAVLLTAVELLQEYDSN | 0.13 ± 0.052
GRPPQPKSVEDLLDRINLKEHMPTFLFNGYEDLDTFKLLEEEDLDELNIRDPERRAVLLTAVELLQEYDSN | -0.823 ± 0.053
GRPPQPKSVEDLLDRINLKEHMPTFLFNGYEDLDTFKLLEEEDLDELNIRDPEVRAVLLTAVELLQEYDSN | -0.189 ± 0.037
GRPPQPKSVEDLLDRINLKEHMPTFLFNGYEDLDTFKLLEEEDLDELNIRDPEGRAVLLTAVELLQEYDSN | -0.832 ± 0.055
GRPPQPKSVEDLLDRINLKEHMPTFLFNGYEDLDTFKLLEEEDLDELNIRDPECRAVLLTAVELLQEYDSN | -0.678 ± 0.058
GRPPQPKSVEDLLDRINLKEHMPTFLFNGYEDLDTFKLLEEEDLDELNIRDPEMRAVLLTAVELLQEYDSN | -0.501 ± 0.064
GRPPQPKSVEDLLDRINLKEHMPTFLFNGYEDLDTFKLLEEEDLDELNIRDPEQRAVLLTAVELLQEYDSN | 0.059 ± 0.048
GRPPQPKSVEDLLDRINLKEHMPTFLFNGYEDLDTFKLLEEEDLDELNIRDPEPRAVLLTAVELLQEYDSN | -0.733 ± 0.066
GRPPQPKSVEDLLDRINLKEHMPTFLFNGYEDLDTFKLLEEEDLDELNIRDPEFRAVLLTAVELLQEYDSN | -1.03 ± 0.085
GRPPQPKSVEDLLDRINLKEHMPTFLFNGYEDLDTFKLLEEEDLDELNIRDPELRAVLLTAVELLQEYDSN | -0.849 ± 0.055
GRPPQPKSVEDLLDRINLKEHMPTFLFNGYEDLDTFKLLEEEDLDELNIRDPESRAVLLTAVELLQEYDSN | -0.408 ± 0.04
GRPPQPKSVEDLLDRINLKEHMPTFLFNGYEDLDTFKLLEEEDLDELNIRDPEWRAVLLTAVELLQEYDSN | -0.96 ± 0.09
GRPPQPKSVEDLLDRINLKEHMPTFLFNGYEDLDTFKLLEEEDLDELNIRDPEIRAVLLTAVELLQEYDSN | -0.458 ± 0.054
GRPPQPKSVEDLLDRINLKEHMPTFLFNGYEDLDTFKLLEEEDLDELNIRDPEKRAVLLTAVELLQEYDSN | -0.496 ± 0.078
GRPPQPKSVEDLLDRINLKEHMPTFLFNGYEDLDTFKLLEEEDLDELNIRDPEDRAVLLTAVELLQEYDSN | -0.02 ± 0.044
GRPPQPKSVEDLLDRINLKEHMPTFLFNGYEDLDTFKLLEEEDLDELNIRDPEARAVLLTAVELLQEYDSN | -0.169 ± 0.039

Variant | abundance fitness
GRPPQPKSVEDLLDRINLKEHMPTFLFNGYEDLDTFKLLEEEDLDELNIRDPETRAVLLTAVELLQEYDSN | -0.093 ± 0.045
GRPPQPKSVEDLLDRINLKEHMPTFLFNGYEDLDTFKLLEEEDLDELNIRDPENRAVLLTAVELLQEYDSN | -0.635 ± 0.064
GRPPQPKSVEDLLDRINLKEHMPTFLFNGYEDLDTFKLLEEEDLDELNIRDPEYRAVLLTAVELLQEYDSN | -0.857 ± 0.074
GRPPQPKSVEDLLDRINLKEHMPTFLFNGYEDLDTFKLLEEEDLDELNIRDPYHRAVLLTAVELLQEYDSN | -0.557 ± 0.063
GRPPQPKSVEDLLDRINLKEHMPTFLFNGYEDLDTFKLLEEEDLDELNIRDPTHRAVLLTAVELLQEYDSN | -0.207 ± 0.043
GRPPQPKSVEDLLDRINLKEHMPTFLFNGYEDLDTFKLLEEEDLDELNIRDPCHRAVLLTAVELLQEYDSN | -0.23 ± 0.06
GRPPQPKSVEDLLDRINLKEHMPTFLFNGYEDLDTFKLLEEEDLDELNIRDPPHRAVLLTAVELLQEYDSN | -0.924 ± 0.09
GRPPQPKSVEDLLDRINLKEHMPTFLFNGYEDLDTFKLLEEEDLDELNIRDPWHRAVLLTAVELLQEYDSN | -0.575 ± 0.075
GRPPQPKSVEDLLDRINLKEHMPTFLFNGYEDLDTFKLLEEEDLDELNIRDPIHRAVLLTAVELLQEYDSN | -0.542 ± 0.063
GRPPQPKSVEDLLDRINLKEHMPTFLFNGYEDLDTFKLLEEEDLDELNIRDPLHRAVLLTAVELLQEYDSN | -0.486 ± 0.045
GRPPQPKSVEDLLDRINLKEHMPTFLFNGYEDLDTFKLLEEEDLDELNIRDPFHRAVLLTAVELLQEYDSN | -0.673 ± 0.079
GRPPQPKSVEDLLDRINLKEHMPTFLFNGYEDLDTFKLLEEEDLDELNIRDPVHRAVLLTAVELLQEYDSN | -0.283 ± 0.046
GRPPQPKSVEDLLDRINLKEHMPTFLFNGYEDLDTFKLLEEEDLDELNIRDPHHRAVLLTAVELLQEYDSN | -0.09 ± 0.049
GRPPQPKSVEDLLDRINLKEHMPTFLFNGYEDLDTFKLLEEEDLDELNIRDPRHRAVLLTAVELLQEYDSN | -0.266 ± 0.045
GRPPQPKSVEDLLDRINLKEHMPTFLFNGYEDLDTFKLLEEEDLDELNIRDPKHRAVLLTAVELLQEYDSN | -0.131 ± 0.048
GRPPQPKSVEDLLDRINLKEHMPTFLFNGYEDLDTFKLLEEEDLDELNIRDPNHRAVLLTAVELLQEYDSN | -0.146 ± 0.05
GRPPQPKSVEDLLDRINLKEHMPTFLFNGYEDLDTFKLLEEEDLDELNIRDPAHRAVLLTAVELLQEYDSN | -0.089 ± 0.041
GRPPQPKSVEDLLDRINLKEHMPTFLFNGYEDLDTFKLLEEEDLDELNIRDPQHRAVLLTAVELLQEYDSN | -0.051 ± 0.049
GRPPQPKSVEDLLDRINLKEHMPTFLFNGYEDLDTFKLLEEEDLDELNIRDPSHRAVLLTAVELLQEYDSN | -0.126 ± 0.037
